Target: HLA-A*02 (human)
Assay: UV-exchange b2m ELISA

Binder: SLTEVSLPL […]
- peptide exchange yield: 50 to 75%
